Residues, ends and D or L forms follow the SMILES beside them. *: point of attachment. Cbz = O=C(OCc1ccccc1)*
How the values were obtained:
PRA and PRB protein = test: PR protein level by western blot of whole cell lysate after co-transfection in SHM cells; assay type: cell-based
Procedure: FIG. 5. […] (A) SHM cells were transient transfected (eighteen hours) with PRA or PRB expression vector with or without increasing doses (0.2, 0.5, 1.0 and 2.0 μg) of His-PSF vector as indicated. Whole cell lysate was analyzed by western blot with PR or His tag antibody. NS=non-specific binding. (B) SHM cells were transient transfected (eighteen hours) with PRA or PRB expression vector together with 2.0 μg His tagged PSF1-707 or truncated PSF1-662. Culture media was added with or without 60 nM MG132 (Z-Leu-Leu-Leu-a1) as indicated for another 6 hours. Whole cell lysate was analyzed by western blot with PR or His tag antibody. Gβ protein was also detected as the cell lysate loading control.
For immunoprecipitation of the endogenous PR and PSF, T47D cells cultured in 150 mm dishes were lysed in 800 μl NETN buffer containing 150 mM NaCl plus protease inhibitor cocktail. Cell lysate were then incubated with 5 μg of PR or PSF, or control mouse IgG at 4° C. overnight, followed by the addition of 30 μl of protein A/G PLUS-agarose beads (Santa Cruz) for another two hours at 4° C. Resins were washed with NETN containing 250 mM NaCl and eluted with 1×Laemmli buffer. The eluted proteins along with the whole cell extract were western blotted by PR or PSF antibody. • GST pulldown assay: GST pulldown assay was performed as previously described (20). GST and its fusion proteins were first immobilized to glutathione-Sepharose 4B affinity matrix. The matrix was then incubated at 4° C. overnight with rabbit reticulocyte lysate (Promega) containing PR or His-PSF transcribed and translated in presence of ^35S methionine. The matrix was washed three times with cold NETN buffer before adding 1 ×Laemmli buffer to elute associated proteins. The eluted proteins were separated on 10% SDS-PAGE gel. Gels were treated with Enhancer (NEN, Boston, US) dried and analyzed by autoradiography. • Cell culture and transient transfection: SHM cells and 293T cells were maintained in DMEM plus 5% FCS (Sigma) as described before (22). For experiments involving steroid exposure, the medium was substituted with phenol red free DMEM containing 5% charcoal-treated fetal bovine serum (Hyclone, Utah, USA). Transfection was performed according to manufacturers protocol (Fementas). Cells were seeded at a density to achieve 60-80% confluency the following day. The DNA and transfection reagent were mixed and added to the medium. Cell lysates were collected at least 30 hours after transfection. For luciferase assay, cells were collected in 200 μl of lysis buffer (Promega) of which 10μl was used for the luciferase and β-Gal activity assays respectively. Luciferase activity was determined by using the luciferin reagent (Promega) according to manufacture's protocol. […]

PR protein = PR protein levels on over-expression of PSF in 293T cells; assay type: cell-based; conditions: 293T cells
[1] = target: T1, His-PSF (6xHis-tagged full length human PSF, amino acid 1-707) (human, UniProt P23246 1-707); test: GST pulldown of ^35S-labeled PSF, autoradiography
T1 construct: Expressed in 293T or SHM cells (co-immunoprecipitation, reporter assays) or translated in rabbit reticulocyte lysate with ^35S methionine (GST pulldown); 1 only as 'e.g.' of wild type PSF; also called His tagged PSF; His tagged PSF1-707; not shown: N-terminal 6xHis tag of vector pcDNA3.1 6xHis
T1 sequence: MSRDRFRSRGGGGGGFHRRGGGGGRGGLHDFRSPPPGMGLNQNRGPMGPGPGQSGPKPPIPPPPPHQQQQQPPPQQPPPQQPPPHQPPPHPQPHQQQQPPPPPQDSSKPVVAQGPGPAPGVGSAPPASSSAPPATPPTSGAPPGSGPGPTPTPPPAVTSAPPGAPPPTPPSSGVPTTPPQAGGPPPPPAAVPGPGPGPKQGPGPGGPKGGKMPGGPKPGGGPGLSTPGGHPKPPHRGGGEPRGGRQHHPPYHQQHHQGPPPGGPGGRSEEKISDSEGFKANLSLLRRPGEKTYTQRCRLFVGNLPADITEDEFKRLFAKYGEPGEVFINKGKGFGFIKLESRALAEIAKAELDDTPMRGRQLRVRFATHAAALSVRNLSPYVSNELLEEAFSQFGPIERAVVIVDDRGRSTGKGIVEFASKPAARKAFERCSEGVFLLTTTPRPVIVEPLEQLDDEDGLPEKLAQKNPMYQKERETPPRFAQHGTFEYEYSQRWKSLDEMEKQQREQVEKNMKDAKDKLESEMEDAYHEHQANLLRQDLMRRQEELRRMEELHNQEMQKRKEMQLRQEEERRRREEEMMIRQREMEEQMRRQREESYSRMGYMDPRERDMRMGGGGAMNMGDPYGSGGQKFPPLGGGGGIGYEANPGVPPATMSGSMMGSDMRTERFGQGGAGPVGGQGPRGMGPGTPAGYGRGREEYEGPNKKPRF

Row | Molecule | binding result [1] | also measured
1 | CC(C)C[C@@H](C=O)NC(=O)[C@H](CC(C)C)NC(=O)[C@H](CC(C)C)NC(=O)OCc1ccccc1 [MG132, Z-Leu-Leu-Leu-a1, reference compound] (Cbz-Leu-Leu-Leu-aldehyde) |  | effect on PSF-induced loss of PR protein (PRA and PRB protein; final concentration of 60 μM for an additional 6 hours): block the loss of PR protein; effect on PSF-induced reduction of PR protein levels (PR protein): rescued
2 | GST-PR fusion protein, amino acids 456-556 of PRB (other, also called other segments of PR; not shown: glutathione-S-transferase (GST) of vector pGEX 5X-2) STLECILYKAEGAPPQQGPFAPPPCKAPGASGCLLPRDGLPSTSASAAAAGAAPALYPALGLNGLPQLGYQAAVLKEGLPQVYPPYLNYLRPDSEASQSPQ | no binding | 
3 | GST-PR fusion protein, amino acids 650-933 of PRB (other, also called other segments of PR; not shown: glutathione-S-transferase (GST) of vector pGEX 5X-2) ALDAVALPQPLGVPNESQALSQRFTFSPGQDIQLIPPLINLLMSIEPDVIYAGHDNTKPDTSSSLLTSLNQLGERQLLSVVKWSKSLPGFRNLHIDDQITLIQYSWMSLMVFGLGWRSYKHVSGQMLYFAPDLILNEQRMKESSFYSLCLTMWQIPQEFVKLQVSQEEFLCMKVLLLLNTIPLEGLRSQTQFEEMRSSYIRELIKAIGLRQKGVVSSSQRFYQLTKLLDNLHDLVKQLHLYCLNTFIQSRALSVEFPEMMSEVIAAQLPKILAGMVKPLLFHKK | no binding | 
4 | PSF-1-662: truncated form of PSF, amino acids 1-662 (protein, UniProt P23246 1-662, looked up, fragment) MSRDRFRSRGGGGGGFHRRGGGGGRGGLHDFRSPPPGMGLNQNRGPMGPGPGQSGPKPPIPPPPPHQQQQQPPPQQPPPQQPPPHQPPPHPQPHQQQQPPPPPQDSSKPVVAQGPGPAPGVGSAPPASSSAPPATPPTSGAPPGSGPGPTPTPPPAVTSAPPGAPPPTPPSSGVPTTPPQAGGPPPPPAAVPGPGPGPKQGPGPGGPKGGKMPGGPKPGGGPGLSTPGGHPKPPHRGGGEPRGGRQHHPPYHQQHHQGPPPGGPGGRSEEKISDSEGFKANLSLLRRPGEKTYTQRCRLFVGNLPADITEDEFKRLFAKYGEPGEVFINKGKGFGFIKLESRALAEIAKAELDDTPMRGRQLRVRFATHAAALSVRNLSPYVSNELLEEAFSQFGPIERAVVIVDDRGRSTGKGIVEFASKPAARKAFERCSEGVFLLTTTPRPVIVEPLEQLDDEDGLPEKLAQKNPMYQKERETPPRFAQHGTFEYEYSQRWKSLDEMEKQQREQVEKNMKDAKDKLESEMEDAYHEHQANLLRQDLMRRQEELRRMEELHNQEMQKRKEMQLRQEEERRRREEEMMIRQREMEEQMRRQREESYSRMGYMDPRERDMRMGGGGAMNMGDPYGSGGQKFPPLGGGGGIGYEANPGVPPATMSGSMMGSDM |  | PR proteins after co-transfection with PRB/PRA (PRA and PRB protein; after 24 hours): total loss of PR proteins
5 | GST-PR fusion protein, amino acids 164-456 of PRB (other, also called other segments of PR; not shown: glutathione-S-transferase (GST) of vector pGEX 5X-2) LMSRSGCKVGDSSGTAAAHKVLPRGLSPARQLLLPASESPHWSGAPVKPSPQAAAVEVEEEDSSESEESAGPLLKGKPRALGGAAAGGGAAACPPGAAAGGVALVPKEDSRFSAPRVALVEQDAPMAPGRSPLATTVMDFIHVPILPLNHALLAARTRQLLEDESYDGGAGAASAFAPPRTSPCASSTPVAVGDFPDCAYPPDAEPKDDAYPLYSDFQPPALKIKEEEEGAEASARSPRSYLVAGANPAAFPDFPLGPPPPLPPRATPSRPGEAAVTAAPASASVSSASSSGS | no binding | 
